Laboratory results: patent publication US12459996B2, “Methods for treating alcohol-induced brain injury and reducing alcohol addiction” (The Regents of the University of California, priority 2017, dated 2025)

Tested on: cultured GFAP+F4/80- astrocytes
Test: IL-1β stimulation of cultured astrocytes, gene expression microarray
Assay type: cell-based, mouse
Conditions: 5 ng/ml, 24 h
Procedure: Whole mouse genome gene expression via Microarray: Primary astrocytes (5×10^5) were stimulated with IL-1β (5 ng/ml), TGF-β1(5 ng/ml) or vehicle for 24 h, harvested, and mRNA was purified using RNAeasy™ columns (Qiagen); and 160 ng of purified RNA per sample was labeled using the LRILAK PLUS™, 2-color, low RNA input Linear Amplification kit and hybridized to a Whole Mouse Genome Microarray 4×44 K™ 60mer slide according to the manufacturer's instructions (Agilent, Santa Clara, CA). Slides were scanned using the Agilent GZ505B Scanner™ and analyzed using the Gene Spring Software™ (Agilent).
To determine the effect of microglia-derived cytokines on astrogliosis 21,22, cultured GFAP^+F4/80-astrocytes were in vitro stimulated with TGF-β1 or IL-β. […] In addition, cultured astrocytes expressed glutamate receptors (mGluRs) that mediate neuron-astrocyte signaling (FIG. 14D). Under pathological conditions, neurodegeneration triggers expansion of reactive astrocytes, upregulation of TGF-β 1, and mGuRs, which together generate neuroprotective effects^24.
FIG. 14A: Primary GFAP^+F4/80^− astrocytes and GFAP^−F4/80^+ microglial cells were isolated from Wt mice, and phenotyped by immunocytochemistry. Cell purity was calculated as percent of total cells (representative images ×20 objective). […] The data are average of (triplicates). FIG. 14B-C: Cultured astrocytes (5×10^5 cells per ml) were stimulated with TGF-β1 (5 ng/ml), or IL-1β (5 ng/ml), or PBS, and subjected to the customized gene expression microarray (Agilent. FIG. 14B: GO enrichment profile for IL-1β- and FIG. 14C: TGF-β- (vs PBS-) stimulated astrocytes is shown.

IL-β1: IL-1β cytokine (5 ng/ml) used to stimulate cultured astrocytes
CCL2, fold induction vs vehicle: 200 fold | CCL5, fold induction vs vehicle: 13 fold | CCL7, fold induction vs vehicle: 400 fold | Cxcl1, fold induction vs vehicle: 14 fold | IL-6, fold induction vs vehicle: 20 fold
